# Assay results as given in patent US20230118307A1, “THERAPEUTIC USE OF LONG-ACTING CONJUGATE OF TRIPLE AGONIST HAVING ACTIVITIES TO ALL OF GLUCAGON/GLP-1/GIP RECEPTORS FOR LUNG DISEASE” (HANMI PHARM. CO., LTD., priority 2020, published 2023).
# Positions of bridges follow the written chain, without caps; N, C: chain ends. Non-standard residues stand in square brackets, D forms with d. No end group written: not given here. *: point of attachment. Acetyl(2-(4-imidazolyl)) = O=C(Cc1c[nH]cn1)*; Aib = CC(C)(N)C(=O)O
# T1: human GIP receptor (human, UniProt P48546 22-466)
# T1 sequence (looked up): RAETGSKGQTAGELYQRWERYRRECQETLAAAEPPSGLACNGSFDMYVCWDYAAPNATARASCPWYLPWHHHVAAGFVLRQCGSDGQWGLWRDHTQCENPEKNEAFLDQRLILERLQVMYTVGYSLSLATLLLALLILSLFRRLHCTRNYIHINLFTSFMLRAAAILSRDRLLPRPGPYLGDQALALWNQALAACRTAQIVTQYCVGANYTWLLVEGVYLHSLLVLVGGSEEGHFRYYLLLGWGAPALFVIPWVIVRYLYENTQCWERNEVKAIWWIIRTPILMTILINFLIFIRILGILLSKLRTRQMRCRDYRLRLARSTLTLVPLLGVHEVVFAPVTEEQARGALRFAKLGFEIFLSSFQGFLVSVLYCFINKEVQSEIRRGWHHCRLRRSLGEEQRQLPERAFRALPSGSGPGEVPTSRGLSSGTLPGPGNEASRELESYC
# Molecular target: human GLP-1 receptor (human, UniProt P43220 24-463)
# Assay: cell-based or functional assay
row,Binder,In vitro Activity Compared to Native Peptide (%) vs. GLP-1 [%]
1,[Acetyl(2-(4-imidazolyl))][Aib]QGTFTSDYSKYLDECRAKEFVQWLLDHHPSSGQPPPS (bridge 16-20) [triple agonist of SEQ ID NO: 73],22.6
2,{Acetyl(2-(4-imidazolyl))}-[Aib]QGTFTSDCSKYLDERAAQDFVQWLLDGGPSSGAPPPS (ends and bridges not checked) [triple agonist of SEQ ID NO: 63],15.3
3,Y[Aib]QGTFTSDCSKYLDERAAKDFVQWLLDHHPSSGQPPPS (bridge 16-20) [triple agonist of SEQ ID NO: 72],11.5
4,Y[Aib]QGTFTSDYSKCLDEKAAKEFVQWLLDHHPSSGQPPPS (bridge 16-20) [triple agonist of SEQ ID NO: 68],27.9
5,H[Aib]EGTFTSDYSIAMDEIHQKDFVDWLLAEKC (bridge 16-20) [triple agonist of SEQ ID NO: 80],8.1
6,[Acetyl(2-(4-imidazolyl))][Aib]EGTFTSDYSIAMDEIHQKDFVNWLLAQC (bridge 16-20) [triple agonist of SEQ ID NO: 83],47.3
7,H[Aib]QGTFTSDYSKCLDEKRAKEFVQWLLDHHPSSGQPPPS (bridge 16-20) [triple agonist of SEQ ID NO: 65],95.4
8,[Acetyl(2-(4-imidazolyl))][Aib]QGTFTSDYSKYLDEKRQKEFVNWLLAQC (bridge 16-20) [triple agonist of SEQ ID NO: 86],28.4
9,H[Aib]QGTFTSDVSKYLDGQAAKEFVAWLLKGC [triple agonist of SEQ ID NO: 7],13.7
10,Y[Aib]QGTFTSDYSKYLDERACKDFVQWLLDHHPSSGQPPPS (bridge 16-20) [triple agonist of SEQ ID NO: 71],90.1
11,[Acetyl(2-(4-imidazolyl))][Aib]QGTFTSDYSKCLDEKRAKEFVQWLLDHHPSSGQPPPS (bridge 16-20) [triple agonist of SEQ ID NO: 74],12.9
12,{Acetyl(2-(4-imidazolyl))}-[Aib]QGTFTSDKSKYLDERAAQDFVQWLLDGGPSSGAPPPS (ends and bridges not checked) [triple agonist of SEQ ID NO: 62],5.2
13,Y[Aib]QGTFTSDYSKYLDECRAKDFVQWLLDHHPSSGQPPPS (bridge 16-20) [triple agonist of SEQ ID NO: 66],15.8
14,H[Aib]QGTFTSDVSKYLDGQAAQEFVAWLLKGC [triple agonist of SEQ ID NO: 8],14.2
15,Y[Aib]QGTFTSDYSKYLDEKRAKDFVQWLLDHHPSSGQPPPSC (bridge 16-20) [triple agonist of SEQ ID NO: 76],10.3

# Molecular target: human GCG receptor (human, UniProt P47871 26-477)
# Assay: cell-based or functional assay
# Sequence of human GCG receptor (P47871 26-477): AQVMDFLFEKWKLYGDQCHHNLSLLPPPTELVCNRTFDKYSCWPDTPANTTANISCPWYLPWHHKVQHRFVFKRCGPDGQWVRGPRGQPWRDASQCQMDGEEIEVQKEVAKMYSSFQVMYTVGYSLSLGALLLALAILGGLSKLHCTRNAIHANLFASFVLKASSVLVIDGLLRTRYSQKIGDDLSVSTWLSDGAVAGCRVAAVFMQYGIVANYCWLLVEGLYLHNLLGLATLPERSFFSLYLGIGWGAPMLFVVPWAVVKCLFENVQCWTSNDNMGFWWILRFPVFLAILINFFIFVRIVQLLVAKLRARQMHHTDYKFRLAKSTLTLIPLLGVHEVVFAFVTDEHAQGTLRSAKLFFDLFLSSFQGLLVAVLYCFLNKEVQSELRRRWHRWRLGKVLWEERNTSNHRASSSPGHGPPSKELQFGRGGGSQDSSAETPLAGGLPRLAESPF
row,Binder,In vitro Activity Compared to Native Peptide (%) vs. Glucagon [%]
1,[Acetyl(2-(4-imidazolyl))][Aib]QGTFTSDYSKYLDECRAKEFVQWLLDHHPSSGQPPPS (bridge 16-20) [triple agonist of SEQ ID NO: 73],5.4
2,{Acetyl(2-(4-imidazolyl))}-[Aib]QGTFTSDCSKYLDERAAQDFVQWLLDGGPSSGAPPPS (ends and bridges not checked) [triple agonist of SEQ ID NO: 63],< 0.1
3,Y[Aib]QGTFTSDCSKYLDERAAKDFVQWLLDHHPSSGQPPPS (bridge 16-20) [triple agonist of SEQ ID NO: 72],1
4,Y[Aib]QGTFTSDYSKCLDEKAAKEFVQWLLDHHPSSGQPPPS (bridge 16-20) [triple agonist of SEQ ID NO: 68],8.8
5,H[Aib]EGTFTSDYSIAMDEIHQKDFVDWLLAEKC (bridge 16-20) [triple agonist of SEQ ID NO: 80],0
6,[Acetyl(2-(4-imidazolyl))][Aib]EGTFTSDYSIAMDEIHQKDFVNWLLAQC (bridge 16-20) [triple agonist of SEQ ID NO: 83],1.3
7,H[Aib]QGTFTSDYSKCLDEKRAKEFVQWLLDHHPSSGQPPPS (bridge 16-20) [triple agonist of SEQ ID NO: 65],25.2
8,[Acetyl(2-(4-imidazolyl))][Aib]QGTFTSDYSKYLDEKRQKEFVNWLLAQC (bridge 16-20) [triple agonist of SEQ ID NO: 86],0.4
9,H[Aib]QGTFTSDVSKYLDGQAAKEFVAWLLKGC [triple agonist of SEQ ID NO: 7],< 0.1
10,Y[Aib]QGTFTSDYSKYLDERACKDFVQWLLDHHPSSGQPPPS (bridge 16-20) [triple agonist of SEQ ID NO: 71],12.7
11,[Acetyl(2-(4-imidazolyl))][Aib]QGTFTSDYSKCLDEKRAKEFVQWLLDHHPSSGQPPPS (bridge 16-20) [triple agonist of SEQ ID NO: 74],0.9
12,{Acetyl(2-(4-imidazolyl))}-[Aib]QGTFTSDKSKYLDERAAQDFVQWLLDGGPSSGAPPPS (ends and bridges not checked) [triple agonist of SEQ ID NO: 62],< 0.1
13,Y[Aib]QGTFTSDYSKYLDECRAKDFVQWLLDHHPSSGQPPPS (bridge 16-20) [triple agonist of SEQ ID NO: 66],172
14,H[Aib]QGTFTSDVSKYLDGQAAQEFVAWLLKGC [triple agonist of SEQ ID NO: 8],0.1
15,Y[Aib]QGTFTSDYSKYLDEKRAKDFVQWLLDHHPSSGQPPPSC (bridge 16-20) [triple agonist of SEQ ID NO: 76],47.6

# Molecular target: T1, human GIP receptor
# Assay: cell-based or functional assay
row,Binder,In vitro Activity Compared to Native Peptide (%) vs. GIP [%]
1,[Acetyl(2-(4-imidazolyl))][Aib]QGTFTSDYSKYLDECRAKEFVQWLLDHHPSSGQPPPS (bridge 16-20) [triple agonist of SEQ ID NO: 73],3
2,{Acetyl(2-(4-imidazolyl))}-[Aib]QGTFTSDCSKYLDERAAQDFVQWLLDGGPSSGAPPPS (ends and bridges not checked) [triple agonist of SEQ ID NO: 63],< 0.1
3,Y[Aib]QGTFTSDCSKYLDERAAKDFVQWLLDHHPSSGQPPPS (bridge 16-20) [triple agonist of SEQ ID NO: 72],1.6
4,Y[Aib]QGTFTSDYSKCLDEKAAKEFVQWLLDHHPSSGQPPPS (bridge 16-20) [triple agonist of SEQ ID NO: 68],107
5,H[Aib]EGTFTSDYSIAMDEIHQKDFVDWLLAEKC (bridge 16-20) [triple agonist of SEQ ID NO: 80],0.1
6,[Acetyl(2-(4-imidazolyl))][Aib]EGTFTSDYSIAMDEIHQKDFVNWLLAQC (bridge 16-20) [triple agonist of SEQ ID NO: 83],0.4
7,H[Aib]QGTFTSDYSKCLDEKRAKEFVQWLLDHHPSSGQPPPS (bridge 16-20) [triple agonist of SEQ ID NO: 65],11.6
8,[Acetyl(2-(4-imidazolyl))][Aib]QGTFTSDYSKYLDEKRQKEFVNWLLAQC (bridge 16-20) [triple agonist of SEQ ID NO: 86],0.2
9,H[Aib]QGTFTSDVSKYLDGQAAKEFVAWLLKGC [triple agonist of SEQ ID NO: 7],< 0.1
10,Y[Aib]QGTFTSDYSKYLDERACKDFVQWLLDHHPSSGQPPPS (bridge 16-20) [triple agonist of SEQ ID NO: 71],94.7
11,[Acetyl(2-(4-imidazolyl))][Aib]QGTFTSDYSKCLDEKRAKEFVQWLLDHHPSSGQPPPS (bridge 16-20) [triple agonist of SEQ ID NO: 74],1
12,{Acetyl(2-(4-imidazolyl))}-[Aib]QGTFTSDKSKYLDERAAQDFVQWLLDGGPSSGAPPPS (ends and bridges not checked) [triple agonist of SEQ ID NO: 62],< 0.1
13,Y[Aib]QGTFTSDYSKYLDECRAKDFVQWLLDHHPSSGQPPPS (bridge 16-20) [triple agonist of SEQ ID NO: 66],17.2
14,H[Aib]QGTFTSDVSKYLDGQAAQEFVAWLLKGC [triple agonist of SEQ ID NO: 8],< 0.1
15,Y[Aib]QGTFTSDYSKYLDEKRAKDFVQWLLDHHPSSGQPPPSC (bridge 16-20) [triple agonist of SEQ ID NO: 76],11.7
